Reference: IntAct's records for PubMed 22056988

B1: Catenin beta-1 (Homo sapiens), P35222 (parent)
chain: MATQADLMELDMAMEPDRKAAVSHWQQQSYLDSGIHSGATTTAPSLSGKGNPEEEDVDTSQVLYEWEQGFSQSFTQEQVADIDGQYAMTRAQRVRAAMFPETLDEGMQIPSTQFDAAHPTNVQRLAEPSQMLKHAVVNLINYQDDAELATRAIPELTKLLNDEDQVVVNKAAVMVHQLSKKEASRHAIMRSPQMVSAIVRTMQNTNDVETARCTAGTLHNLSHHREGLLAIFKSGGIPALVKMLGSPVDSVLFYAITTLHNLLLHQEGAKMAVRLAGGLQKMVALLNKTNVKFLAITTDCLQILAYGNQESKLIILASGGPQALVNIMRTYTYEKLLWTTSRVLKVLSVCSSNKPAIVEAGGMQALGLHLTDPSQRLVQNCLWTLRNLSDAATKQEGMEGLLGTLVQLLGSDDINVVTCAAGILSNLTCNNYKNKMMVCQVGGIEALVRTVLRAGDREDITEPAICALRHLTSRHQEAEMAQNAVRLHYGLPVVVKLLHPPSHWPLIKATVGLIRNLALCPANHAPLREQGAIPRLVQLLVRAHQDTQRRTSMGGTQQQFVEGVRMEEIVEGCTGALHILARDVHNRIVIRGLNTIPLFVQLLYSPIENIQRVAAGVLCELAQDKEAAEAIEAEGATAPLTELLHSRNEGVATYAAAVLFRMSEDKPQDYKKRLSVELTSSLFRTEPMAWNETADLGLDIGAQGEPLGYRQDDPSYRSFHSGGYGQDALGMDPMMEHEMGGHHPGADYPVDGLPDLGHAQDLMDGLPPGDSNQLAWFDTDL

Variants of: B1
Details: with src_human SRC

| effect of a mutation on the interaction | Variant |
| --- | --- |
| decreasing interaction | Y333F |
